Test results taken from US20200277373A1, “ANTI-TREM2 ANTIBODIES AND METHODS OF USE THEREOF” (Denali Therapeutics Inc., priority 2017, published 2020).

T1: hTREM2 (Homo sapiens, UniProt Q9NZC2)
T1 construct: The ecto domain (residues 19-172) of TREM2 (UniProtKB—Q9NZC2); secretion signal of mouse Ig kappa chain V-III (P01661 aa 1-20) (N); made in house; host or cells: Expi293F
T1 sequence (Q9NZC2 19-172): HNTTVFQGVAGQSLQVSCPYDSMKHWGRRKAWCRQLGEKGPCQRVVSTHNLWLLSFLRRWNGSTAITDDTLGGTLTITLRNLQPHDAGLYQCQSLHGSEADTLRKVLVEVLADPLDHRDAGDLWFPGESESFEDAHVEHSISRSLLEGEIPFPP

T2: TREM2 (Homo sapiens, UniProt Q9NZC2)
T2 construct: macrophage cells that endogenously express TREM2; endogenous in cells; host or cells: primary human monocyte-derived macrophages from donor blood
T2 sequence (Q9NZC2 19-230): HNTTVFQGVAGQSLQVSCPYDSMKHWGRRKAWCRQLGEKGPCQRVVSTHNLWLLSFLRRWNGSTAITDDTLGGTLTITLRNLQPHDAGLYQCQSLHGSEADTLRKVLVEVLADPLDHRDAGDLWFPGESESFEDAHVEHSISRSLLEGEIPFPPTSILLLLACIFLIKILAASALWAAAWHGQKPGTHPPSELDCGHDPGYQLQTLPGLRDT

B1: 21D11: anti-TREM2 antibody clone; VH SEQ ID NO:14, VL SEQ ID NO:25 (antibody, V domains shown)
VH: QVQLQQSGAELARPGASVKLSCKASGYTFTSYWIQWVKQRPGQGLEWIGTIYPGDGDARYTQKFKGKATLTADKSSSTTYMQLNSLASEDSAVYYCARNGITTAGYYAMDYWGQGTSVTVSS
VL: DIQMTQSPASLSVSVGETVTITCRASENIYSNLAWYQQKQGRSPQLLVYAATNLADGVPSRFSGSGSGTQYSLKINSLQSEDFGYYYCQHFWGTPYTFGGGTKVEIK
B2: 3D3.A1: anti-TREM2 antibody clone; VH SEQ ID NO:18, VL SEQ ID NO:29 (antibody, V domains shown)
VH: EVQLQQSGPELVKPGASVKISCKTSGYTLSEYTMHWVIQSHGKSLEWIGGVIPNSGGTSYNQKFRDKASLTVDKSSSTAYLELRSLTSEDSAVYYCARGDDSYRRGYALDYWGQGTSVTVSS
VL: DIVMSQSPSSLAVSVGEKVTMSCKSSQSLLYSSNQKSYLAWYQQKPGQSPKLLIYWASTRESGVPDRFRGSGSGTDFTLTISSVKAEDLAVYYCQQYFSYPPTFGGGTKLEIK
B3: RS9.F6: anti-TREM2 antibody clone; VH SEQ ID NO:24, VL SEQ ID NO:35 (antibody, V domains shown)
VH: QVQLQQPGAELVKPGASVKLSCKASGYTFTSYWMHWVKQSPGRGLEWIGRSDPTTGGTNYNEKFKTKATLTVDKPSSTAYMQLSSLTSDDSAVYYCVRTSGTGDYWGQGTSLTVSS
VL: DVVMTQTPLSLPVSLGDQASISCRSSQSLVHNNGNTFLHWYLQKPGQSPKLLIYKVSNRFSGVPDRFSGSGSGTDFTLKISRVEAEDLGVYFCSQTTHVPPTFGGGTKLEIK

What was measured:
hTREM2 [1] = target: T1, hTREM2; assay: Octet binning (competition with R&D antibody on biotinylated TREM2-His); type: binding; settings: epitope bin, 100 nM
Experimental: Competition with R&D antibody was done by Octet Red using biotinylated human Trem2-His protein generated in house. Biotinylated human TREM2-His protein was captured on a streptavidin tip, and the tip was then incubated in either 100 nM of R&D Ab or buffer for 3 minutes, followed by incubation for 3 minutes in 100 nM of testing hybridoma. The difference of hybridoma binding curve with or without pre-binding to R&D antibody was analyzed to determine the epitope.

TREM2 [2] = target: T3, TREM2 (Homo sapiens, UniProt Q9NZC2); assay: pSyk antagonist assay on HEK293 TREM2/DAP12 cells; type: cell-based; settings: FIGS. 9E-9G
T3 construct: expressed in transfected cells
Experimental: These experiments were performed as follows. Two days in advance of the experiment, HEK293 cells stably overexpressing TREM2 and DAP12 were plated at 40,000 cells/well on a 96 well poly-D-lysine-coated plate. Antibodies diluted in DMEM alone were immediately added to the cells, and allowed to incubate for 30 minutes at 37° C. The antibodies were then removed. […] The liposome/antibody solution was removed, and 35 μL lysis buffer (Cell Signaling Technologies, CST) was added using the liquid handler. The lysate was then incubated at 4° C. for 30 minutes, then either frozen at −80° C. or immediately carried forward to a pSyk AlphaLISA assay as described above. The percent inhibition was calculated as in FIG. 9C.
FIGS. 9F and 9G show inhibition by 21D4 and 21D11, respectively, at increasing antibody concentrations. These experiments were performed similarly to those described in FIG. 9E.
T3 sequence (O43914 22-113 partner, one chain of several): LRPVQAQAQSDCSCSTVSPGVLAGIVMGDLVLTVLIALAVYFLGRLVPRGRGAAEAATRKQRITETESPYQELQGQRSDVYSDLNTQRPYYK

TREM2 [3] = target: T2, TREM2; assay: TREM2 PAM/pSyk assay on human macrophages; type: cell-based; settings: for effect on lipid ligand activation of TREM2 (in words): FIG. 9B, human macrophages; for Slope + Liposome: pSyk, 10 nM antibody with 0, EC20, EC50, EC80 PS/PC liposomes, liposome-alone signal subtracted
Experimental: Human macrophages were differentiated from donor blood using a human monocyte enrichment cocktail (Stem Cell Technologies) and culturing monocytes with human mCSF for five days in macrophage media (RPMI+10% Hyclone FBS+Glutamax+Pen/Strep+non-essential amino acids+sodium pyruvate). On the fifth day, the human macrophages were scraped from the flasks and were re-plated at 100,000 cells/well on a 96-well poly-D-lysine-coated plate in the macrophage media (without mCSF). The cells were incubated for 24 hours to adhere, then the media was removed.
Antibodies pre-mixed with lipid vesicles comprised of 70% DOPC and 30% POPS (made according to the procedure for making vesicles described above) diluted in HBSS were immediately added to the cells, and allowed to incubate for 5 minutes at 37° C. The liposome/antibody solution was removed, and 35 μL lysis buffer (Cell Signaling Technologies, CST) was added using the liquid handler. The lysate was then incubated at 4° C. for 30 minutes, then either frozen at −80° C. or immediately carried forward to a pSyk AlphaLISA assay as described above. […] The results of the assay are shown in FIG. 9B and in Table 8 below.

hTREM2 [4] = target: T1, hTREM2; assay: Biacore T200 binding kinetics to hTREM2; settings: analyte hTREM2
Experimental: The binding of the TREM2/TfR-binding protein RS9.F6/3C35.21.17 to TREM2 and TfR was measured using SPR on a Biacore T200 instrument. To measure TfR binding, anti-human-Fab was immobilized on a CM5 chip, and the TREM2/TfR-binding protein was captured. Full-length human TfR or human TfR apical domain at serial dilution (e.g., concentrations of 1-1000 nM) was flowed over the chip (180 second association time) and then allowed to dissociate. Fitting was performed using a 1:1 binding model. To measure TREM2 binding, anti-human-Fc antibody was immobilized on a CM5 chip, and the TREM2/TfR-binding protein was captured. A range of concentrations of recombinant TREM2-His protein were flowed over the chip, and allowed to associate and dissociate. The resulting sensograms were fitted using a 1:1 Langmuir model to estimate kon and koff (FIG. 10).
The affinities of RS9.F6/3C35.21.17 for human TREM2 and TfR were determined by surface plasmon resonance using a Biacore™ T200. Biacore Series S CM5 sensor chips were immobilized with a mixture of two monoclonal mouse anti-Fab antibodies (Human Fab capture kit from GE Healthcare). Serial 3-fold dilutions of each antigen were injected at a flow rate of 30 μL/min. The binding of the antigens to captured antibody was monitored for 30 to 180 seconds and then their dissociation was monitored for 30-300 seconds in HBS-EP+running buffer (GE, # BR100669). Binding response was corrected by subtracting the RU from a blank flow cell. A 1:1 Languir model of simultaneous fitting of kon and koff was used for kinetics analysis.

human macrophages = assay: Signaling pathway Alpha-LISA (pSYK, pERK1/2, pGSK3-beta, pAKT) in human macrophages; type: cell-based; settings: 15 minutes
Experimental: Anti-TREM2 antibodies were characterized for activation of several signaling pathways, SYK, ERK1/2, AKT and GSK3-beta. Human macrophages differentiated from peripheral monocytes were plated in 96-well plates at a density of 100,000 cell/well. The assay was tested in three conditions (0%, 0.5%, and 10% FBS in the media) for 3 hours. Cells were stimulated with the antibody RS9.F6, 24B4.A1, 8A11.B1, 3D3.A1, 54C2.A1, isotype control IgG2ak, rat anti-TREM2 from R&D, isotype control rat IgG2b, or no treatment (NT) for 15 minutes. The cell lysates were measured for p-Y525/526-SYK, p-T202/Y204-ERK1/2, p-S9-GSK3-beta, and p-S473-AKT using Alpha-LISA kits (Perkin Elmer). […] The antibodies stimulated p-GSK signal moderately (FIG. 6C).

| Molecule | Bin by Octet (hTREM2 [1]) | inhibition of liposome mediated pSyk (TREM2 [2]) | effect on lipid ligand activation of TREM2 (in words) (TREM2 [3]) | Slope + Liposome (TREM2 [3]) | ka (hTREM2 [4]) [M⁻¹ s⁻¹] | kd (hTREM2 [4]) [s⁻¹] | p-SYK signal (human macrophages) | pERK1/2 signal (human macrophages) |
| --- | --- | --- | --- | --- | --- | --- | --- | --- |
| B1 | 1-2 | weaker antagonistic activity | – | – | – | – | – | – |
| B2 | 3 | – | at least an additive effect | 94 | 480000 | 0.019 | robust | robust |
| B3 | – | – | at least an additive effect | 878 | 150000 | 0.00034 | robust | robust |
